Experimental data as given in patent publication US20250018014A1, “METHOD FOR TREATING AND/OR PREVENTING REGNASE-1-RELATED DISEASE” (OSAKA UNIVERSITY, priority 2018, published 2025).
Positions of bridges follow the written chain, without caps; N, C: chain ends. Non-standard residues stand in square brackets, D forms with d. *: point of attachment. Pyrrolidide = C1CCN(*)C1; dNMeA = CN[C@H](C)C(=O)O

T1: C-terminal human Regnase-1 (amino acids 301 to 599) with N-terminal FLAG tag and C-terminal BirA recognition … (human, UniProt Q5D1E8 301-599)
T1 sequence: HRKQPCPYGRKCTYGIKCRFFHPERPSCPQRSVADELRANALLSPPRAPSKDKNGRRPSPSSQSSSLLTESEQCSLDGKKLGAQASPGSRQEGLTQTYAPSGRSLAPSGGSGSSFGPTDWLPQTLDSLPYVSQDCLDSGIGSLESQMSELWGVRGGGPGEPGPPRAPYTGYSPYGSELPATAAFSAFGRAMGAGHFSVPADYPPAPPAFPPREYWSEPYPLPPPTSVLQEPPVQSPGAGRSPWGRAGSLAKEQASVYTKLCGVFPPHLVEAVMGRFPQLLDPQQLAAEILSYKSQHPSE

T2: full-length human Regnase-1 with a FLAG tag on the N-terminal side and a biotin ligase BirA recognition … (human, UniProt Q5D1E8 1-599, biotinylated at the BirA recognition sequence when required)
T2 sequence: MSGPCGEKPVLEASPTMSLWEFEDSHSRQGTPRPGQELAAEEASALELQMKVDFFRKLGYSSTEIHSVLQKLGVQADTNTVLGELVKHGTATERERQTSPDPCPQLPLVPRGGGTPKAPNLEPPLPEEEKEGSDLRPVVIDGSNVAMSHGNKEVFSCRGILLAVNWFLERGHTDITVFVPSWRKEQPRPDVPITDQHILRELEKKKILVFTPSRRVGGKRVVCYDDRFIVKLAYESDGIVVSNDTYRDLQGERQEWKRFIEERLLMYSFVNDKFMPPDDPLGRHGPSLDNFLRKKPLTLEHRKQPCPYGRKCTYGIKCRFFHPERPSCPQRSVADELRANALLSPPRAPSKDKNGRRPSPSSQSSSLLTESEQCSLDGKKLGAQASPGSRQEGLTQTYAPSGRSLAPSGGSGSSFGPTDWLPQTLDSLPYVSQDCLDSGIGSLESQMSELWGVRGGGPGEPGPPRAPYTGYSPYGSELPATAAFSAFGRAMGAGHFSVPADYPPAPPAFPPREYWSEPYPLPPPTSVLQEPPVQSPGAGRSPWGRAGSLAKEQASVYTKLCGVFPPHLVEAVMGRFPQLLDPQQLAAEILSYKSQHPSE

T3: C-terminal domain-deleted human Regnase-1 (amino acids 1 to 546) with N-terminal FLAG tag and C-terminal BirA … (human, UniProt Q5D1E8 1-546)
T3 sequence: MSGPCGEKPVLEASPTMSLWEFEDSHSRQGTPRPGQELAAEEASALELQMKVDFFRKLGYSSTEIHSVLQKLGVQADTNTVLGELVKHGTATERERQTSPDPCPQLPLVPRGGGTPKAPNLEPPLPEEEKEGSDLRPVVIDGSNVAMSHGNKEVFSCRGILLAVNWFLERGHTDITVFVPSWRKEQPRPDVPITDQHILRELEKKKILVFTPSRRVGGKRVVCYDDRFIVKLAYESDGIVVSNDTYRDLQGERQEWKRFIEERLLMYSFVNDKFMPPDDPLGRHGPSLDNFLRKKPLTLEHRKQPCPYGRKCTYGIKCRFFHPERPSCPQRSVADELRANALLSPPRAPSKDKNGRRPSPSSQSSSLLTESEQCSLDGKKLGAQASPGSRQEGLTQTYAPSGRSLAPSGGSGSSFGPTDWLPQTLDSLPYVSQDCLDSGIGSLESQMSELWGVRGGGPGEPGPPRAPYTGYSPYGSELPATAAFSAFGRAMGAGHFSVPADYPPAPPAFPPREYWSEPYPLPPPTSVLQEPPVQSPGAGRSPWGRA


What was measured:
Assay in all cases: cell-based or functional assay
[1] = molecular target: T1, C-terminal human Regnase-1 (amino acids …)
[2] = molecular target: T2, full-length human Regnase-1 with a FLAG …
[3] = molecular target: T3, C-terminal domain-deleted human …
[4] = molecular target: T1, C-terminal human Regnase-1 (amino acids …); remark: listed apart in the source
[5] = molecular target: T2, full-length human Regnase-1 with a FLAG …; remark: listed apart in the source
[6] = molecular target: T3, C-terminal domain-deleted human …; remark: listed apart in the source

Binder	50% inhibition concentration, Regnase-1 phosphorylation by IKKβ (AlphaScreen) [1] [µM]	50% inhibition concentration, Regnase-1 phosphorylation by IKKβ (AlphaScreen) [2] [µM]	50% inhibition concentration, Regnase-1 phosphorylation by IKKβ (AlphaScreen) [3] [µM]	50% inhibition concentration, Regnase-1 phosphorylation by TBK1 (AlphaScreen) [4] [µM]	50% inhibition concentration, Regnase-1 phosphorylation by TBK1 (AlphaScreen) [5] [µM]	50% inhibition concentration, Regnase-1 phosphorylation by TBK1 (AlphaScreen) [6] [µM]
XNSWYKIWGLD (HELM PEPTIDE1{[meA].N.S.W.Y.K.I.W.G.L.D.[C1CCN([*:1])C1]}$PEPTIDE1,PEPTIDE1,1:R1-11:R3$$$V2.0; SMILES CC[C@H](C)[C@@H]1NC(=O)[C@H](CCCCN)NC(=O)[C@H](Cc2ccc(O)cc2)NC(=O)[C@H](Cc2c[nH]c3ccccc23)NC(=O)[C@H](CO)NC(=O)[C@H](CC(N)=O)NC(=O)[C@H](C)N(C)C(=O)C[C@@H](C(=O)N2CCCC2)NC(=O)[C@H](CC(C)C)NC(=O)CNC(=O)[C@H](Cc2c[nH]c3ccccc23)NC1=O) [PP21]	37.2	19.6	39.3	17	13.5	11.7
XNSWYRIWGLD (HELM PEPTIDE1{[meA].N.S.W.Y.R.I.W.G.L.D.[C1CCN([*:1])C1]}$PEPTIDE1,PEPTIDE1,1:R1-11:R3$$$V2.0; SMILES CC[C@H](C)[C@@H]1NC(=O)[C@H](CCCNC(=N)N)NC(=O)[C@H](Cc2ccc(O)cc2)NC(=O)[C@H](Cc2c[nH]c3ccccc23)NC(=O)[C@H](CO)NC(=O)[C@H](CC(N)=O)NC(=O)[C@H](C)N(C)C(=O)C[C@@H](C(=O)N2CCCC2)NC(=O)[C@H](CC(C)C)NC(=O)CNC(=O)[C@H](Cc2c[nH]c3ccccc23)NC1=O) [PP22]	31	15	34	25.8	24.3	22.8
[dNMeA]PTSSWYKIWD-Pyrrolidide (lactam N-11) [PP23]	> 62.1	25.6	> 62.1	30.7	18.8	29.7
XWIWDFWNED (HELM PEPTIDE1{[meA].W.I.W.D.F.W.N.E.D.[C1CCN([*:1])C1]}$PEPTIDE1,PEPTIDE1,1:R1-10:R3$$$V2.0; SMILES CC[C@H](C)[C@@H]1NC(=O)[C@H](Cc2c[nH]c3ccccc23)NC(=O)[C@H](C)N(C)C(=O)C[C@@H](C(=O)N2CCCC2)NC(=O)[C@H](CCC(=O)O)NC(=O)[C@H](CC(N)=O)NC(=O)[C@H](Cc2c[nH]c3ccccc23)NC(=O)[C@H](Cc2ccccc2)NC(=O)[C@H](CC(=O)O)NC(=O)[C@H](Cc2c[nH]c3ccccc23)NC1=O) [PP24]	7.2	5.3	4	34.8	35.7	27.3
[dNMeA]EDTPEDDHD-Pyrrolidide (lactam N-10) [PP25]	27.6	27	47.7	16.3	18.9	16.1
XKFWIHHSFED (HELM PEPTIDE1{[meA].K.F.W.I.H.H.S.F.E.D.[C1CCN([*:1])C1]}$PEPTIDE1,PEPTIDE1,1:R1-11:R3$$$V2.0; SMILES CC[C@H](C)[C@@H]1NC(=O)[C@H](Cc2c[nH]c3ccccc23)NC(=O)[C@H](Cc2ccccc2)NC(=O)[C@H](CCCCN)NC(=O)[C@H](C)N(C)C(=O)C[C@@H](C(=O)N2CCCC2)NC(=O)[C@H](CCC(=O)O)NC(=O)[C@H](Cc2ccccc2)NC(=O)[C@H](CO)NC(=O)[C@H](Cc2c[nH]cn2)NC(=O)[C@H](Cc2c[nH]cn2)NC1=O) [PP20]	> 62.1	24.7	> 62.1	> 62.1	38.5	> 62.1
